Laboratory results: ChEMBL document CHEMBL2074286, “Active transport of the angiotensin-II antagonist losartan and its main metabolite EXP 3174 across MDCK-MDR1 and caco-2 cell monolayers” (Br J Pharmacol, 2000)

How the values were obtained:
[1] = tested on: CCCCc1nc(Cl)c(CO)n1Cc1ccc(-c2ccccc2-c2nn[nH]n2)cc1; assay: TP_TRANSPORTER: transepithelial transport (basal to apical) in MDR1-expressing MDCK cells; format: functional, cell-based
[2] = tested on: CCCCc1nc(Cl)c(CO)n1Cc1ccc(-c2ccccc2-c2nn[nH]n2)cc1; assay: TP_TRANSPORTER: transepithelial transport (basal to apical) in Caco-2 cells; format: functional, cell-based

“ATP-dependent translocase ABCB1 (Homo sapiens)” was tested, and the Km [1] was 403 µM and the Km [2] was 232 µM.
